Laboratory results reported in publication PMC3474754.

Target: full-length uncleaved Reelin (FL-Reelin) (UniProt Q60841)
Test: cross-linking; BS3 cross-linker, 30 minutes on ice, on FL- or C-cleaved Reelin in conditioned medium; anti-Reelin (G10) immunoblot

stoichiometry N: 2
Substance: full-length uncleaved Reelin (FL-Reelin), Q60841 27-3461
